B1: Trim5α from Rhesus macaque, Bbox coiled-coil regions, residues 88–296 with the mutation [Rhesus macaque] / GABARAPL1 [not stated] (parent)
chain 1: PEEGQKVDHCARHGEKLLLFCQEDSKVICWLCKDSQEHRGHHTFLMEEVAQEYHVKLQTALEMLRQKQQEAEKLEADIREEKASWKIQIDYDKTNVSADFEQLREILDWEESNELQNLEKEEEDILKSLTKSETEMVQQTQYMRELISELEHRLQGSMMDLLQGVDGIIKRIENMTLKKPKTFHKNQRRVFRAPDLKGMLDMFRELTDA
chain 2: not shown
B2: Trim5α from Rhesus macaque, Bbox coiled-coil regions, residues 88–296 with the mutation [Rhesus macaque] / GABARAP [not stated] (parent)
chain 1: B1 chain 1
chain 2: MKFVYKEEHPFEKRRSEGEKIRKKYPDRVPVIVEKAPKARIGDLDKKKYLVPSDLTVGQFYFLIRKRIHLRAEDALFFFVNNVIPPTSATMGQLYQEHHEEDFFLYIAYSDESVYGL
B3: Trim5α from Rhesus macaque, Bbox coiled-coil regions, residues 88–296 with the mutation [Rhesus macaque] / LC3C [not stated] (parent)
chain 1: B1 chain 1
chain 2: MPPPQKIPSVRPFKQRKSLAIRQEEVAGIRAKFPNKIPVVVERYPRETFLPPLDKTKFLVPQELTMTQFLSIIRSRMVLRATEAFYLLVNNKSLVSMSATMAEIYRDYKDEDGFVYMTYASQETFG

One experiment covers variants of B1. The experiment can be described thus: SV-AUC c(s) analysis. The conditions noted are these: with GABARAPL1; equal concentration of 20 μm; read off a plot.
For the variant chain 1 E111K, the screen value came to 2.9 S. In the case of chain 1 Q102A, the screen value was 3.1 S. Same read-out and setting: the same measure for chain 1 S112A: 3 S; for chain 1 E119K: 2.9 S; for chain 1 E119A: 3 S.

On to chain 1 Q116A, for which the screen value turned out to be 3 S. Turning to chain 1 E105A, the screen value stood at 2.9 S. On to chain 1 E105K, for which the screen value is 2.8 S. Still for that read-out and setting: the same measure for chain 1 E110A: 3 S.

The same experiment, now with this note: with autophagy-related protein LC3 B (LC3B), equal concentration of 20 μm, read off a plot.
For chain 1 E111K, the screen value was determined as 2.8 S. With chain 1 Q102A, the screen value stood at 2.9 S. On the same count and under the same terms, the same measure for chain 1 S112A: 3 S.

chain 1 E119K: the screen value worked out at 2.8 S.

In the case of chain 1 E119A, the screen value amounted to 2.8 S. Still for that read-out and setting: the value for chain 1 Q116A was 3 S. Same read-out and setting: the value for chain 1 E105A was 2.8 S; that for chain 1 E105K was 2.7 S. Same read-out and setting: the same measure for chain 1 E110A: 2.8 S.

Still in this experiment, the particulars now being: with GABARAPL1; 20 μm equimolar concentration; read off a plot.
As to chain 1 W109A, the screen value stood at 2.8 S.

The same experiment, now with this note: with autophagy-related protein LC3 B (LC3B), 20 μm equimolar concentration, read off a plot.
Consider chain 1 W109A, for which the screen value is 2.7 S.

The next experiment covers variants of B2. The experiment can be described thus: SV-AUC c(s) analysis. To be noted: with GABARAP; 20 μm equimolar concentration; read off a plot.
As to chain 1 W109A, the screen value came out at 2.8 S.

The variants in the next experiment derive from B3. Nature of the experiment: SV-AUC c(s) analysis. The conditions noted are these: with LC3C; 20 μm equimolar concentration; read off a plot.
On to chain 1 PEEGQKVDHCARHGEKLLLFCQEDSKVICWLCKDSQEHRGHHTFLMEEVAQEYHVKLQTALEMLRQKQQEAEKLEADIREEKASWKIQIDYDKTNVSADFEQLREILDAEESNELQNLEKEEEDILKSLTKSETEMVQQTQYMRELISELEHRLQGSMMDLLQGVDGIIKRIENMTLKKPKTFHKNQRRVFRAPDLKGMLDMFRELTDA [chain 1 W109A], for which the screen value was 2.7 S.

The values above are taken from paper PMC6254359.
